Patent US9200252B2, “Compositions for inducing differentiation into retinal cells from retinal progenitor cells or inducing proliferation of retinal cells comprising Wnt signaling pathway activators” (SNU R&DB Foundation, priority 2009, dated 2015)
Where “and” joins values, the source holds several entries; their conditions need not be identical. Equal entries are not always repeated.

How the values were obtained:
Format in all cases: cell-based, human
[1] = system: hESC-derived retinal progenitor cells; assay: Differentiation into photoreceptor cells with Wnt3a or its inhibitor Dkk-1, without Shh and retinoic acid; immunofluorescent staining on Day 29
Experimental: In order to examine the function of the Wnt signaling pathway activator on differentiation from hESCs into retinal cells, particularly photoreceptor cells, cells were cultured in the presence of a Wnt signaling pathway antagonist. The Wnt/Frizzled signaling pathway inhibitor Dkk-1 (R&D Systems, Minneapolis, Minn., USA) was added at a concentration of 10 ng/ml, 100 ng/ml or 1 μg/ml on day 13, followed by culturing the cells for an additional 16 days. While the antagonist concentrations were maintained uniformly over the culture time period, the Wnt signaling pathway activator was assayed for activity. Dkk-1 was dissolved in 0.1% bovine serum albumin (BSA, Sigma-Aldrich) in PBS before use.
According to a protocol for differentiation into retinal cells, Wnt3a and Dkk-1 were added on Day 13 at the following concentrations: 50 ng/ml Wnt3a (group I), free of both Wnt3a and Dkk-1 (group II), 10 ng/ml Dkk-1 (group III), 100 ng/ml Dkk-1 (group IV), and […] Dkk-1 (group V). In each medium, the cells were cultured to Day 29. In this experiment, none of the other major differentiation factors Shh and RA were used.
On Day 29, the cells which had been cultured on poly-D-lysine/laminin-coated, 8-well slides (BD Biosciences) under the conditions of Wnt3a and Dkk-1 (groups I-V) were fixed with 4% paraformaldehyde (Sigma-Aldrich), after which non-specific reactions were blocked with PBS containing 3% BSA (Jackson Immunoresearch Laboratory, Bar Harbor, Me., USA) and 0.25% Triton X-100 (Sigma-Aldrich).
(§1) After being blocked for 90 min, the slides in each differentiation step were incubated overnight at 4° C. with the following antibodies specific for cells of each differentiation step: rabbit-Blue-opsin (1:500, Chemicon), sheep-Chx10 (1:100, Chemicon), rabbit-Crx (1:200, Santa Cruz Biotechnology, Santa Cruz, Calif., USA), rabbit-GFAP (1:200, Invitrogen), mouse-human specific mitochondria (1:50, Chemicon), rabbit-human specific mitochondria (1:200, Chemicon), mouse-Islet1 (1:10, Developmental Studies Hydroma Bank, DSHB; Iowa City, Iowa, USA), mouse-Ki67 (1:100, Vector Laboratories, Peterborough, England), mouse-Mitf (1:1,000, abcam, Cambridge, Mass., USA), mouse-nestin (1:250, BD Sciences), rabbit-neurofilament-200 (1:1,000, Sigma-Aldrich), rabbit-Otx2 (1:100, abcam), rabbit-Pax2 (1:250, abcam), mouse-Pax6 (1:2, DSHB), mouse-peripherin2 (1:500, GenScript, Piscataway, N.J., USA), rabbit-Rax (1:250, abcam), rabbit-recoverin (1:1,000, Chemicon), retinal pigment epithelium 65 (RPE65, 1:100, Chemicon), rabbit-rhodopsin (1:500, Sigma-Aldrich), mouse-rhodopsin (1:500, Ret-P1, Lab Vision, Fremont, Calif., USA), mouse-rhodopsin (1:2,000, Ret-P1, Sigma-Aldrich), mouse-rom1 (1:50, ABR-Affinity Bioreagents, Golden, Colo., USA), rabbit-PDE6 beta (1:100, abcam), rabbit-phosducin (1:500, Santa Cruz Biotechnology), mouse-PKC-alpha (1:500, Sigma-Aldrich), mouse-Prox1 (1:2,000, Chemicon), mouse-Sox2 (1:250, R&D Systems), rabbit-synaptophysin (1:2,000, Santa Cruz Biotechnology), and rabbit-ZO-1 (1:100, Zymed-Invitrogen).
Before use, these antibodies were diluted in a PBS solution containing 1% BSA and 0.25% Triton X-100. The cells were washed three times for 5 min with PBS and incubated at room temperature for 2 hrs with species-specific secondary antibody conjugated with Cy3 (1:800, Jackson Immunoresearch Laboratory) or Alexa488 (1:500, Invitrogen). A standard material suitable for the primary and the secondary antibody was used to examine non-specific staining or interaction between the antibodies. Afterwards, the cells were washed three times for 5 min with PBS, counterstained with DAPI (4,6-diamidino-2 phenylindole) and mounted in Vectashield (Vector Laboratories), followed by visualization under an epifluorescence microscope (Nikon Eclipse, E800, Tokyo, Japan) and a confocal microscope (Leica, Leica Microsystems Inc, Bannockburn, Ill., USA or Zeiss LSM510, Carl Zeiss, Inc, Thornwood, N.Y., USA). […]

[2] = system: hESC-derived retinal progenitor cells; assay: Expression levels of retinal cell markers before and after Wnt3a addition (retinal progenitor cells into neural retinal progenitor cells); details: on Day 18; Wnt3a 50 ng/ml for 5 days from Day 13
Experimental: To differentiate the retinal progenitor cells generated in Example 3 into neural retinal progenitor cells, Dkk-1 supply was quit on day 3 after induction and a culture medium containing a combination of noggin, IGF-1, FGF2 and Wnt3a was supplied for 5 days (FIG. 1). The culture medium was composed as follows: [DMEM/F12 (Invitrogen), 1 mM L-glutamine (Invitrogen), 0.1 mM nonessential amino acids (Invitrogen), 0.1 mM mercaptoethanol (Sigma-Aldrich), 1% B27 supplement (Invitrogen), 1% N2 supplement (Invitrogen), 10 ng/ml noggin, 10 ng/ml IGF-1, 5 ng/ml FGF2, and 50 ng/ml recombinant Wnt3a (R&D Systems)].
The eye field precursors (floating aggregates) were cultured in 8-well poly-D-lysine/laminin-coated slides (BD Biosciences, Bedford, Mass.) under the same conditions that were used for differentiation into the retinal progenitor cells, the neural retinal progenitor cells, the photoreceptor cell precursors and the photoreceptor cells. The cells completely cultured in each step were fixed with 4% paraformaldehyde (Sigma-Aldrich), after which non-specific reactions were blocked with PBS containing 3% BSA (Jackson Immunoresearch Laboratory, Bar Harbor, Me., USA) and 0.25% Triton X-100 (Sigma-Aldrich).
as §1
Before use, these antibodies were diluted in a PBS solution containing 1% BSA and 0.25% Triton X-100. The cells cultured on the slides in each step were washed three times for 5 min with PBS and incubated at room temperature for 2 hrs with species-specific secondary antibody conjugated with Cy3 (1:800, Jackson Immunoresearch Laboratory) or Alexa488 (1:500, Invitrogen). A standard material suitable for the primary and the secondary antibody was used to examine non-specific staining or interaction between the antibodies. Afterwards, the cells were washed three times for 5 min with PBS, counterstained with DAPI (4,6-diamidino-2 phenylindole) and mounted in Vectashield (Vector Laboratories), followed by visualization under an epifluorescence microscope (Nikon Eclipse, E800, Tokyo, Japan) and a confocal microscope (Leica, Leica Microsystems Inc, Bannockburn, Ill., USA or Zeiss LSM510, Carl Zeiss, Inc, Thornwood, N.Y., USA).
500 cells were counted from 20 microscopic fields randomly selected at 200 magnification and evaluated for positive responses to each antibody. Positive responses to antibodies were determined after at least three evaluations. […]

[3] = system: hESC-derived retinal progenitor cells; assay: as above
[4] = Dkk-1 10 ng/ml (Group III), from Day 13 to Day 29, no Wnt3a, Shh, RA
[5] = Dkk-1 10 ng/ml, 100 ng/ml, 1 μg/ml
[6] = Dkk-1 100 ng/ml (Group IV), from Day 13 to Day 29, no Wnt3a, Shh, RA
[7] = Dkk-1 1 μg/ml (Group V), from Day 13 to Day 29, no Wnt3a, Shh, RA
[8] = Wnt3a 50 ng/ml (Group I), from Day 13 to Day 29, no Shh, no RA

B1: Dkk-1: recombinant Dkk-1 (R&D Systems), Wnt/Frizzled signaling pathway inhibitor (protein, UniProt O94907 32-266, looked up)
Dickkopf-related protein 1: TLNSVLNSNAIKNLPPPLGGAAGHPGSAVSAAPGILYPGGNKYQTIDNYQPYPCAEDEECGTDEYCASPTRGGDAGVQICLACRKRRKRCMRHAMCCPGNYCKNGICVSSDQNHFRGEIEETITESFGNDHSTLDGYSRRTTLSSKMYHTKGQEGSVCLRSSDCASGLCCARHFWSKICKPVLKEGQVCTKHRRKGSHGLEIFQRCYCGEGLSCRIQKDHHQASNSSRLHTCQRH
[1]; [4]
  Positive rate of Crx: 54.3 (±3.1) %
  Positive rate of Pax6: 63.9 (±0.9) %
  Positive rate of peripherin2: 27.0 (±1.0) %
  Positive rate of recoverin: 55.1 (±0.6) %
  Positive rate of rhodopsin: 49.1 (±2.0) %
[1]; [5]
  Expression level of photoreceptor cell markers Crx, recoverin, rhodopsin and peripherin2 with increasing Dkk-1 concentration: remarkably decreased
  Expression level of retinal progenitor cell marker Pax6 with increase in Dkk-1 concentration: decreased
[1]; [6]
  Positive rate of Crx: 7.4 (±1.1) %
  Positive rate of Pax6: 51.8 (±1.0) %
  Positive rate of peripherin2: 2.1 (±1.0) %
  Positive rate of recoverin: 41.5 (±1.3) %
  Positive rate of rhodopsin: 28.9 (±0.5) %
[1]; [7]
  Positive rate of Crx: 7.5 (±0.9) %
  Positive rate of Pax6: 42.1 (±2.1) %
  Positive rate of peripherin2: 0.1 (±0.1) %
  Positive rate of recoverin: 15.2 (±4.0) %
  Positive rate of rhodopsin: 11.9% and 11.9 (±3.0) %

B2: Wnt3a: recombinant Wnt3a (R&D Systems), Wnt signaling pathway activator (protein, UniProt P56704 19-352, looked up)
Protein Wnt-3a: SYPIWWSLAVGPQYSSLGSQPILCASIPGLVPKQLRFCRNYVEIMPSVAEGIKIGIQECQHQFRGRRWNCTTVHDSLAIFGPVLDKATRESAFVHAIASAGVAFAVTRSCAEGTAAICGCSSRHQGSPGKGWKWGGCSEDIEFGGMVSREFADARENRPDARSAMNRHNNEAGRQAIASHMHLKCKCHGLSGSCEVKTCWWSQPDFRAIGDFLKDKYDSASEMVVEKHRESRGWVETLRPRYTYFKVPTERDLVYYEASPNFCEPNPETGSFGTRDRTCNVSSHGIDGCDLLCCGRGHNARAERRREKCRCVFHWCCYVSCQECTRVYDVHTCK
[2]
  Expression level (positive rate) of Chx10 after Wnt3a addition: 64.5 (±1.6) %
  Expression level (positive rate) of Crx after Wnt3a addition: 80.1% and 80.1 (±0.2) %
  Expression level (positive rate) of Ki67 after Wnt3a addition: 31.5 (±0.5) %
  Expression level (positive rate) of Mitf after Wnt3a addition: 2.7 (±1.0) %
  Expression level (positive rate) of Nestin after Wnt3a addition: 18.0% and 18.0 (±1.4) %
  Expression level (positive rate) of Otx2 after Wnt3a addition: 61.5 (±0.6) %
  Expression level (positive rate) of Pax6 after Wnt3a addition: 89.1 (±2.5) %
  Expression level (positive rate) of Peripherin2 after Wnt3a addition: 13.9% and 13.9 (±2.4) %
  Expression level (positive rate) of Rax after Wnt3a addition: 98.2 (±0.9) %
  Expression level (positive rate) of Recoverin after Wnt3a addition: 68.5% and 68.5 (±2.6) %
  Expression level (positive rate) of Rhodopsin after Wnt3a addition: 52.9% and 52.9 (±3.4) %
  Expression level (positive rate) of Sox2 after Wnt3a addition: 68.1 (±1.1) %
[3]
  Pax6-positive cells with increase in Wnt3a concentration: increased in a dose-dependent manner
[1]; [8]
  Positive rate of Crx: 32.5 (±0.3) %
  Positive rate of Pax6: 82.1 (±4.0) %
  Positive rate of peripherin2: 21.5 (±0.3) %
  Positive rate of recoverin: 72.3 (±0.8) %
  Positive rate of rhodopsin: 73.8 (±0.9) %
